Data from US20070243571A1, “Method for Measurement of Activity of Homocysteinethiolactone Hydrolyzing Enzyme” (priority 2004, published 2007).
Like-named read-outs stand apart in the source and are kept apart here.

B1: Cholinesterase: Human butyrylcholinesterase (348643, Boehringer) dissolved in purified water, 2.0 U/ml solution (protein, UniProt P06276 29-602, looked up)
Cholinesterase: EDDIIIATKNGKVRGMNLTVFGGTVTAFLGIPYAQPPLGRLRFKKPQSLTKWSDIWNATKYANSCCQNIDQSFPGFHGSEMWNPNTDLSEDCLYLNVWIPAPKPKNATVLIWIYGGGFQTGTSSLHVYDGKFLARVERVIVVSMNYRVGALGFLALPGNPEAPGNMGLFDQQLALQWVQKNIAAFGGNPKSVTLFGESAGAASVSLHLLSPGSHSLFTRAILQSGSFNAPWAVTSLYEARNRTLNLAKLTGCSRENETEIIKCLRNKDPQEILLNEAFVVPYGTPLSVNFGPTVDGDFLTDMPDILLELGQFKKTQILVGVNKDEGTAFLVYGAPGFSKDNNSIITRKEFQEGLKIFFPGVSEFGKESILFHYTDWVDDQRPENYREALGDVVGDYNFICPALEFTKKFSEWGNNAFFYYFEHRSSKLPWPEWMGVMHGYEIEFVFGLPLERRDNYTKAEEILSRSIVKRWANFAKYGNPNETQNNSTSWPVFKSTEQKYLTLNTESTRIMTKLRAQQCRFWTSFFPKVLEMTGNIDEAEWEWKAGFHRWNNYMMDWKNQFNDYTSKKESCVGL

How the values were obtained:
[1] = Autolysis of the substrate in reagent-blank (purified water as sample); type: physicochemical; conditions: HTL, MOPS buffer pH 7.8, purified water as sample
Procedure: (§1) Following the above parameters, purified water, 15 μl of a sample and 200 μl of reagent 1(A) or 1(B) or 1(C) or 1(D) was dispensed and mixed, and, after a certain length of time at a constant temperature (37° C., 5 min), 50 μl of reagent 2 was added and mixed to allow reaction to start. When reagent 2 was added to the mixture of the fraction containing serum, plasma, albumin or HDL and reagent 1(A), 1(C) or 1(D), increase in absorbance was detected which was due to the reaction of the SH-group detection reagent with DL-homocysteine, which has a free SH group, formed by hydrolysis of HTL.
As evident from FIG. 2, increase in absorbance is suppressed when calcium ion is blocked by EDTA.
as §1, with “parameters,” for “parameters, purified water,”, “cholinesterase” for “albumin”, “1(A),” for “1(A), 1(C) or 1(D),”, “4-mercaptobutyric acid,” for “DL-homocysteine,”, “by” for “by hydrolysis”, “HTL hydrolyzing enzyme.” for “HTL.”
As evident from FIG. 4, increase in absorbance is suppressed when calcium ion is not present. […]

[2] = biological target: T1, Human butyrylcholinesterase (Homo sapiens, UniProt P06276); assay: Hydrolysis of substrate by purified human cholinesterase; type: biochemical; conditions: 2.0 U/ml human butyrylcholinesterase solution as sample
T1 construct: purchased Boehringer 348643
Procedure: Human butyrylcholinesterase (348643, Boehringer) was dissolved in purified water to prepare a 2.0 U/ml solution.
as §1
as §1, with “parameters,” for “parameters, purified water,”, “cholinesterase” for “albumin”, “1(A),” for “1(A), 1(C) or 1(D),”, “4-mercaptobutyric acid,” for “DL-homocysteine,”, “by” for “by hydrolysis”, “HTL hydrolyzing enzyme.” for “HTL.”

HTL hydrolyzing enzyme [3] = assay: Measurement of hydrolyzing enzyme activity for TBL (DTNB rate assay, H-7170 analyzer); type: biochemical, human; conditions: substrate TBL
Procedure: Hydrolyzing enzyme activity for TBL was measured with above-mentioned samples and unprepared serum.
Reagent 1(A): SH-group detection solution; 0.2 M MOPS buffer containing 0.5 mM CaCl2 and 1.0 mM DTNB (pH 7.2).
Reagent 1(B): SH-group detection solution; 0.2 M MOPS buffer containing 2 mM EDTA and 1.0 mM DTNB (pH 7.2).
Reagent 1(C): SH-group detection solution; 0.2 M MOPS buffer containing 0.5 mM CaCl2, 0.1 mM physostigmine sulfate and 1.0 mM DTNB (pH 7.2).
Reagent 1(D): SH-group detection solution; 0.2 M MOPS buffer containing 0.5 mM CaCl2, 0.1 mM neostigmine bromide and 1.0 mM DTNB (pH 7.2).
Reagent 2: substrate solution; aqueous solution containing 125 mM TBL (Aldrich).
For measurement of hydrolyzing enzyme activity TBL, H-7170 automatic analyzer (Hitachi, Ltd.) was used. Parameters for measurement were as follows.
Following the above parameters, 15 μl of a sample and 200 μl of reagent 1(A) or 1(B) or 1(C) or 1(D) was dispensed and mixed, and, after a certain length of time at a constant temperature (37° C., 5 min), 50 μl of reagent 2 was added and mixed to allow reaction to start.
(§2) The activity value of HTL hydrolyzing enzyme for TBL in each sample was calculated based on: the change in absorbance per unit of time (1 min) (ΔE) from 2-minute up to 4-minute time points after the addition of the substrate (reagent 2), the molecular extinction coefficient of 5-thio-2-nitrobenzoic acid at the wavelength of 480 nm, ε=2509, and the molecular extinction coefficient of the compound at the wavelength of 546 nm, ε=78.

cholinesterase = cholinesterase (Homo sapiens, UniProt P06276); conditions: Nescoat ChE V-2 according to the package insert
Procedure: Cholinesterase activity was measured with the above-mentioned samples and unprepared serum. Measurement of cholinesterase activity was carried out using Nescoat ChE V-2 (Alfresa Pharma Coporation) according to the package insert.

HTL hydrolyzing enzyme [4] = assay: Measurement of hydrolyzing enzyme activity for HTL (DTNB rate assay, H-7170 analyzer); type: biochemical, human; conditions: substrate DL-HTL
Procedure: Hydrolyzing enzyme activity for HTL was measured with purified water and above-mentioned samples.
Reagent 1(A): SH-group detection solution; 0.2 M MOPS buffer containing 0.5 mM CaCl2 and 1.0 mM DTNB (pH 7.8).
Reagent 1(B): SH-group detection solution; 0.2 M MOPS buffer containing 2 mM EDTA and 1.0 mM DTNB (pH 7.8).
Reagent 1(C): SH-group detection solution; 0.2 M MOPS buffer containing 0.5 mM CaCl2, 0.1 mM physostigmine sulfate and 1.0 mM DTNB (pH 7.8).
Reagent 1(D): SH-group detection solution; 0.2 M MOPS buffer containing 0.5 mM CaCl2, 0.1 mM neostigmine bromide and 1.0 mM DTNB (pH 7.8).
Reagent 2: substrate solution; aqueous solution containing 125 mM DL-HTL (Tokyo Chemical Industry Co., Ltd).
For measurement of HTL hydrolyzing enzyme activity, H-7170 automatic analyzer (Hitachi, Ltd.) was used. Parameters for measurement were as follows.
Following the above parameters, purified water, 15 μl of a sample and 200 μl of reagent 1(A) or 1(B) or 1(C) or 1(D) was dispensed and mixed, and, after a certain length of time at a constant temperature (37° C., 5 min), 50 μl of reagent 2 was added and mixed to allow reaction to start.
as §2, with “enzyme” for “enzyme for TBL”

Row | Molecule | stability of substrate in the reaction solution (autolysis, increase in absorbance of reagent-blank) [1] | hydrolysis by purified human cholinesterase [2] | activity value of HTL hydrolyzing enzyme for TBL, No addition (HTL hydrolyzing enzyme [3]; Reagent 1(A): 0.5 mM CaCl2, pH 7.2, 37° C., no inhibitor) | activity value of HTL hydrolyzing enzyme for TBL, EDTA.2Na (HTL hydrolyzing enzyme [3]; Reagent 1(B): 2 mM EDTA, pH 7.2, 37° C.) | activity value of HTL hydrolyzing enzyme for TBL, Physostigmine sulfate (HTL hydrolyzing enzyme [3]; Reagent 1(C): 0.5 mM CaCl2, 0.1 mM physostigmine sulfate, pH 7.2, 37° C.) | activity value of HTL hydrolyzing enzyme for TBL, Neostigmine bromide (HTL hydrolyzing enzyme [3]; Reagent 1(D): 0.5 mM CaCl2, 0.1 mM neostigmine bromide, pH 7.2, 37° C.) | Cholinesterase activity (cholinesterase) | Cholinesterase activity (cholinesterase; listed as human cholinesterase) | activity value of HTL hydrolyzing enzyme, No addition (HTL hydrolyzing enzyme [4]; Reagent 1(A): 0.5 mM CaCl2, pH 7.8, 37° C., no inhibitor) | activity value of HTL hydrolyzing enzyme, EDTA.2Na (HTL hydrolyzing enzyme [4]; Reagent 1(B): 2 mM EDTA, pH 7.8, 37° C.) | activity value of HTL hydrolyzing enzyme, Physostigmine sulfate (HTL hydrolyzing enzyme [4]; Reagent 1(C): 0.5 mM CaCl2, 0.1 mM physostigmine sulfate, pH 7.8, 37° C.) | activity value of HTL hydrolyzing enzyme, Neostigmine bromide (HTL hydrolyzing enzyme [4]; Reagent 1(D): 0.5 mM CaCl2, 0.1 mM neostigmine bromide, pH 7.8, 37° C.)
1 | NC1CCSC1=O (stereo not drawn) [HTL, homocysteinethiolactone] | unstable in the reaction solution | not hydrolyzed | – | – | – | – | – | – | – | – | – | –
2 | B1 | – | – | 403 | 399 | 1 | 2 | 15392 | observed | 8 | 6 | −1 | −2
